Data: article doi:10.64898/2025.12.11.692727, “Nucleophagy removes cytotoxic trapped PARP1” (bioRxiv, 2025)

Target: T1, PARP1, recombinant, full length (printed as GFP-PARP1 in the results) (UniProt P09874 1-1014)
T1 construct: Full-length PARP1 cloned into the NcoI and BamHI sites of the pNIC28 vector; The results call the purified protein GFP-PARP1; the methods describe full-length PARP1 in pNIC28 without naming GFP; source: E. coli expression system, purified
Test: pull-down; in vitro; PARP1 (2.5 µM) loaded on PARP1-trap beads, TEX264 (2.5 µM) added, 2 hrs at 4°C; 50 mM HEPES pH 7.4, 500 mM NaCl, 0.01% Triton X-100, 1 mM TCEP; stringent washes with 0.1% Triton X-100; Western blot
Details: both partners purified

T1 sequence (P09874 whole entry): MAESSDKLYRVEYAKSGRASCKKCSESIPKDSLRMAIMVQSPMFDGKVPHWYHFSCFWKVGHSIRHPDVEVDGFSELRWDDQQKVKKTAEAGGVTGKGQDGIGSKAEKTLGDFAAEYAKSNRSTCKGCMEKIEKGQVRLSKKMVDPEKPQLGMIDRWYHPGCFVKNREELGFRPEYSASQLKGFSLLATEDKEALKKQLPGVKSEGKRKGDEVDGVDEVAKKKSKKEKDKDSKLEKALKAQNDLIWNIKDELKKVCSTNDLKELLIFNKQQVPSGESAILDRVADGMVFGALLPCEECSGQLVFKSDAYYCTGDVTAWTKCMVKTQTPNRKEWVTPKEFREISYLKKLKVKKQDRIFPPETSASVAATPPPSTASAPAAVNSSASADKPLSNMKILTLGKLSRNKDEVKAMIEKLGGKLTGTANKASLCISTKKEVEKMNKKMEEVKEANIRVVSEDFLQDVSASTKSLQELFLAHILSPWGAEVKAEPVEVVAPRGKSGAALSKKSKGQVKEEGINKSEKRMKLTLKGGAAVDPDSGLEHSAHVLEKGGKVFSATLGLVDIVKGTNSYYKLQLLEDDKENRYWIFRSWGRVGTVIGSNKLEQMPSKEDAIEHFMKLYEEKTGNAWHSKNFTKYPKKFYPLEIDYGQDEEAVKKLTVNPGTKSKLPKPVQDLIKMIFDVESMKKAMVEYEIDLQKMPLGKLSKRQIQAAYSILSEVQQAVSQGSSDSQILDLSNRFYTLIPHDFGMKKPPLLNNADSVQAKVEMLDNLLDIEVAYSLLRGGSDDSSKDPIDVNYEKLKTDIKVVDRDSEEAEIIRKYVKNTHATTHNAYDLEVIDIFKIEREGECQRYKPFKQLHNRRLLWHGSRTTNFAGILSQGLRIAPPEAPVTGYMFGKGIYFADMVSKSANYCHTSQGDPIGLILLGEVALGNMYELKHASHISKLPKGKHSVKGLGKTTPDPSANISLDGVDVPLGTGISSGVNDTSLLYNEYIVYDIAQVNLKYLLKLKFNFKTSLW

B1: TEX264 C-terminal half (186-313), recombinant (domain or fragment, UniProt Q9Y6I9 186-313, looked up)
chain: RQGDFYVPEMKETEWKWRGLVEAIDTQVDGTGADTMSDTSSVSLEVSPGSRETSAATLSPGASSRGWDDGDTRSEHSYSESGASGSSFEELDLEGEGPLGESRLDPGTEPLGTTKWLWEPTAPEKGKE
notes: The range 186-313 of the methods is tied to the 'C-terminal half' of the results by its position; source: E. coli expression system, purified
  binding result: binds
